Measurements: patent publication US8563314

Assays:
Assay in all cases: cell_activity
ZFN 12971 (synthetic) = details: pair with 12934, day 3, K562
ZFN 12972 (synthetic) = details: pair with 12934, day 3, K562
ZFN 25022 (synthetic) = details: pair with 12942, PBMC, 37C day 3
ZFN 25023 (synthetic) = details: pair with 12942, PBMC, 37C day 3
ZFN 18759 (synthetic) = details: pair with 12942, PBMC, 37C day 3
ZFN 25016 (synthetic) = details: pair with 12942, PBMC, 37C day 3
ZFN 25014 (synthetic) = details: pair with 12942, PBMC, 37C day 3
ZFN 25011 (synthetic) = details: pair with 12942, PBMC, 37C day 3
ZFN 25027 (synthetic) = details: pair with 12942, PBMC, 37C day 3
ZFN 25017 (synthetic) = details: pair with 12942, PBMC, 37C day 3
ZFN 25005 (synthetic) = details: pair with 12942, PBMC, 37C day 3
ZFN 25006 (synthetic) = details: pair with 12942, PBMC, 37C day 3
ZFN 25015 (synthetic) = details: pair with 12942, PBMC, 37C day 3; helices printed identical to 25014
ZFN 25010 (synthetic) = details: pair with 12942, PBMC, 37C day 3
ZFN 25041 (synthetic) = details: pair with 12942, PBMC, 37C day 3
ZFN 25030 (synthetic) = details: pair with 12942, PBMC, 37C day 3; F3 printed RPMHUTN
ZFN 25040 (synthetic) = details: pair with 12942, PBMC, 37C day 3
ZFN 25032 (synthetic) = details: pair with 12942, PBMC, 37C day 3
ZFN 25013 (synthetic) = details: pair with 12942, PBMC, 37C day 3
ZFN 25034 (synthetic) = details: pair with 12942, PBMC, 37C day 3
ZFN 25036 (synthetic) = details: pair with 12942, PBMC, 37C day 3; helices printed identical to 25031
ZFN 25028 (synthetic) = details: pair with 12942, PBMC, 37C day 3
ZFN 25012 (synthetic) = details: pair with 12942, PBMC, 37C day 3
ZFN 25029 (synthetic) = details: pair with 12942, PBMC, 37C day 3
ZFN 25031 (synthetic) = details: pair with 12942, PBMC, 37C day 3
ZFN 25025 (synthetic) = details: pair with 12942, PBMC, 37C day 3
ZFN 12934 (synthetic) = details: pair with 12971 or 12972, day 3, K562
ZFN 12942 (synthetic) = details: pair with 12947, day 3, K562

**Q.** How did the activity (ZFN 12971 (synthetic)) turn out when “CTGTGGACTATGGGGAGCTGGATTTCCA (double strand) [PD1 exon 5 12971/12972 site]” was run?
**A.** Its activity is 11 % NHEJ.

**Q.** And the activity (ZFN 12972 (synthetic))?
**A.** The activity was 11 % NHEJ.

**Q.** Which activity (ZFN 25022 (synthetic)) does the source give for “CAGTCGTCTGGGCGGTGCT (double strand) [PD1 exon 1 18759/250xx site]” here?
**A.** The activity was 3.6 % NHEJ.

**Q.** What about the activity (ZFN 25023 (synthetic)) of the same sequence?
**A.** The activity was 3.1 % NHEJ.

**Q.** And the activity (ZFN 18759 (synthetic))?
**A.** Its activity is 4.7 % NHEJ.

**Q.** What about the activity (ZFN 25016 (synthetic)) of the same sequence?
**A.** The activity was 7.3 % NHEJ.

**Q.** What about the activity (ZFN 25014 (synthetic)) of the same sequence?
**A.** The activity was 10.7 % NHEJ.

**Q.** What about the activity (ZFN 25011 (synthetic)) of the same sequence?
**A.** The activity was 3.1 % NHEJ.

**Q.** And the activity (ZFN 25027 (synthetic))?
**A.** The activity was 6 % NHEJ.

**Q.** What about the activity (ZFN 25017 (synthetic)) of the same sequence?
**A.** Its activity is 7.7 % NHEJ.

**Q.** What about the activity (ZFN 25005 (synthetic)) of the same sequence?
**A.** Its activity is 4.4 % NHEJ.

**Q.** And the activity (ZFN 25006 (synthetic))?
**A.** Its activity is 2.9 % NHEJ.

**Q.** And the activity (ZFN 25015 (synthetic))?
**A.** The activity was 3.9 % NHEJ.

**Q.** And the activity (ZFN 25010 (synthetic))?
**A.** Its activity is 4.9 % NHEJ.

**Q.** What about the activity (ZFN 25041 (synthetic)) of the same sequence?
**A.** Its activity is 7.9 % NHEJ.

**Q.** And the activity (ZFN 25030 (synthetic))?
**A.** Its activity is 7.6 % NHEJ.

**Q.** What about the activity (ZFN 25040 (synthetic)) of the same sequence?
**A.** The activity was 6.1 % NHEJ.

**Q.** What about the activity (ZFN 25032 (synthetic)) of the same sequence?
**A.** The activity was 6.7 % NHEJ.

**Q.** What about the activity (ZFN 25013 (synthetic)) of the same sequence?
**A.** Its activity is 3.7 % NHEJ.

**Q.** And the activity (ZFN 25034 (synthetic))?
**A.** Its activity is 4.9 % NHEJ.

**Q.** What about the activity (ZFN 25036 (synthetic)) of the same sequence?
**A.** The activity was 8.3 % NHEJ.

**Q.** What about the activity (ZFN 25028 (synthetic)) of the same sequence?
**A.** Its activity is 4.3 % NHEJ.

**Q.** And the activity (ZFN 25012 (synthetic))?
**A.** The activity was 5.9 % NHEJ.

**Q.** What about the activity (ZFN 25029 (synthetic)) of the same sequence?
**A.** Its activity is 8.1 % NHEJ.

**Q.** And the activity (ZFN 25031 (synthetic))?
**A.** Its activity is 9.4 % NHEJ.

**Q.** And the activity (ZFN 25025 (synthetic))?
**A.** Its activity is 8.8 % NHEJ.

**Q.** Which activity (ZFN 12934 (synthetic)) does the source give for “GAACACAGGCACGGCTGAGGGGTCCTCC (double strand) [PD1 exon 5 12934 site]” here?
**A.** Its activity is 11 % NHEJ.

**Q.** With “CCAGGGCGCCTGTGGGATCTGCATGCCT (double strand) [PD1 exon 1 12942 site]” as the sequence, how does the activity (ZFN 12942 (synthetic)) read?
**A.** Its activity is 10 % NHEJ.
